According to patent US20250355001A1 (GTINVENT, published 2025):
Where two headings read alike, the source gives them in different places. Where no end group is shown, it is not given here. The star is where a group is joined. Biotin = O=C1N[C@H]2[C@H](CS[C@H]2CCCCC(=O)*)N1

Key:
[1] = target: T1, full length human tau protein 2N4R (hT40) (human, UniProt P10636 1-758); assay: hT40 ELISA
T1 construct: recombinant; also called T441
Description: (§1) A series of binding ELISA was performed using various truncated versions of the tau protein and 13mer peptide libraries spanning the entire hT40 molecule for mapping the epitopes of anti-tau scAbs (Full list of protein antigens used is given in Table 14). In general, ELISA plates were coated with 1 μg/ml hT40 or dGA or dGAE or other truncated versions of the protein and in the case of biotinylated peptides, plates were coated with 5 μg/ml Streptavidin followed by 1 μg/ml biotinylated peptide. The plates were blocked with 2% MPBS and scAb samples added at desired starting concentrations and double diluted across the plate. Binding was detected using anti-Human C Kappa HRP conjugated secondary antibody and the resulting immunoreaction was developed and absorbance values measured as described above.

[2] = target: T1, full length human tau protein 2N4R …; assay: hT40 ELISA; remark: listed apart in the source
Target sequence in this assay (P10636 other isoform, or with tags, fused parts or gaps limits assumed): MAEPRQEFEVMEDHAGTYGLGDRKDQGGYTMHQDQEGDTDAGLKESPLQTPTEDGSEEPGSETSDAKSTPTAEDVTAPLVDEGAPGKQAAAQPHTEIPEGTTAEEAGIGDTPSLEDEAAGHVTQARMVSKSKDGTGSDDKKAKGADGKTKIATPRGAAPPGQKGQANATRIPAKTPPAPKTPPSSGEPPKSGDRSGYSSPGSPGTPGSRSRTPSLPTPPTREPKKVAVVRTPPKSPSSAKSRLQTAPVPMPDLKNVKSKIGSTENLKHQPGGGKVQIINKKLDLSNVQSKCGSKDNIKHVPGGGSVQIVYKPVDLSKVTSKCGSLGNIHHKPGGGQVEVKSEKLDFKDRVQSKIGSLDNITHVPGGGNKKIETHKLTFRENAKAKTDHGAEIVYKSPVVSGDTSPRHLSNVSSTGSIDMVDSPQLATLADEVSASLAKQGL

[3] = target: T1, full length human tau protein 2N4R …; assay: hT40 ELISA; remark: listed apart in the source
dGAE (tau 297-391) [4] = target: T2, dGAE (tau 297-391) (human, UniProt P10636 614-708); assay: ELISA
T2 construct: monomer; also called dGAE95
Description: as §1

dGA (tau 297-390) = dGA (tau 297-390) (human, UniProt P10636 614-707); assay: ELISA
Description: as §1

[5] = target: T1, full length human tau protein 2N4R …; assay: ELISA
Description: as §1

tau fragment 337-368 = tau fragment 337-368 (human); assay: direct ELISA
tau fragment 337-368 (human), sequence (peptide, as listed by the source): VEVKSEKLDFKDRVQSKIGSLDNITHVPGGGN

tau fragment 275-305 = tau fragment 275-305 (human); assay: direct ELISA
tau fragment 275-305 (human), sequence (peptide, as listed by the source): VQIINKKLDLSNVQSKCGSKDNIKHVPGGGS

[6] = target: T1, full length human tau protein 2N4R …; assay: SPR, scAb captured, tau analyte
In short: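 scAb captured on flow cell 2 of an antibody-coated chip, flow cell 1 as reference; tau analyte injected 120 s association, 420 s dissociation, glycine pH 2.0 regeneration, in multi-cycle or single-cycle kinetics format. Responses fitted to a 1:1 binding model for kinetics and affinity.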
Target sequence in this assay (P10636 other isoform, or with tags, fused parts or gaps limits assumed): as the sequence (P10636 other isoform, or with tags, fused parts or gaps limits assumed) above

tau fragment 1-111 = tau fragment 1-111 (human, UniProt P10636 1-111); assay: direct ELISA
Description: as §1

tau fragment 1-49 = target: T3, tau fragment 1-49 (human); assay: direct ELISA
T3 construct: also called Tau 1-49
T3 peptide: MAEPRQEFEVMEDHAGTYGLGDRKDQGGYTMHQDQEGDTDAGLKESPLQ
Description: as §1

tau fragment 369-391 = target: T4, tau fragment 369-391 (human); assay: direct ELISA
T4 peptide: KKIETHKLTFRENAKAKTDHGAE

dGAE (tau 297-391) [7] = target: T2, dGAE (tau 297-391); assay: direct ELISA
tau fragment 369-390 = target: T5, tau fragment 369-390 (human); assay: direct ELISA
T5 peptide: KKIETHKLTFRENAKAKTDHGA

[8] = target: T1, full length human tau protein 2N4R …; assay: hT40 ELISA; remark: listed apart in the source
Target sequence in this assay (P10636 other isoform, or with tags, fused parts or gaps limits assumed): as the sequence (P10636 other isoform, or with tags, fused parts or gaps limits assumed) above

tau fragment 348-441 = tau fragment 348-441 (human, UniProt P10636 665-758); assay: direct ELISA
tau fragment 348-441, sequence (P10636 665-758): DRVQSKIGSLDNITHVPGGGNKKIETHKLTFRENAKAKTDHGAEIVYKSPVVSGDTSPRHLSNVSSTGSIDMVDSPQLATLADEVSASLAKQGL

[9] = target: T6, human tau (hT40) with P301S and G335D of Line 66 mice (human, UniProt P10636 1-758); assay: Western blot
T6 construct: transgene product in brain homogenate or plasma; also called L66 human tau
T6 sequence (P10636 other isoform, or with tags, fused parts or gaps P301S G335D P301S G335D limits assumed): as the sequence (P10636 other isoform, or with tags, fused parts or gaps limits assumed) above, with P301S, G335D counted along it

[10] = target: T1, full length human tau protein 2N4R …; assay: SPR, hT40 immobilised, mAb analyte
Description: For anti-tau mAb SPR measurements, htau40 was conjugated to the surface of a CM5 sensor chip using amine coupling as explained previously. Briefly, 2 μg/mL htau40 in 10 mM Sodium acetate buffer (pH 4.0) was passed over the activated chip surface (EDC/NHS) in flow cell 2 for a period for 45 s followed by blocking with 1 M ethanolamine-HCl PH 8.5. Flow cell 1 was set up as reference control and blocked simultaneously. Final immobilisation level of htau40 (Rmax) was approximately 250 RU. […] The mAb was added for a 120 s association period and 600 s dissociation period followed by a regeneration cycle of 30 s injection of glycine buffer pH 1.5 in between each cycle. Binding responses were analysed in Biacore X100 evaluation software and data fitted to a 1:1 binding model to obtain kinetic and affinity characterisation.
Target sequence in this assay (P10636 other isoform, or with tags, fused parts or gaps limits assumed): as the sequence (P10636 other isoform, or with tags, fused parts or gaps limits assumed) above

[11] = target: T7, human tau fragment 296-390 of Line 1 mice (human, UniProt P10636 613-707); assay: Western blot of brain homogenates
T7 construct: also called L1 fragment; 10-kDa tau fragment

mouse tau = target: T8, mouse tau (mouse, UniProt P10637 2-733); assay: Western blot of brain homogenates
T8 construct: endogenous protein of mouse brain or plasma; also called endogenous mouse tau
T8 sequence (P10637 other isoform, or with tags, fused parts or gaps limits assumed): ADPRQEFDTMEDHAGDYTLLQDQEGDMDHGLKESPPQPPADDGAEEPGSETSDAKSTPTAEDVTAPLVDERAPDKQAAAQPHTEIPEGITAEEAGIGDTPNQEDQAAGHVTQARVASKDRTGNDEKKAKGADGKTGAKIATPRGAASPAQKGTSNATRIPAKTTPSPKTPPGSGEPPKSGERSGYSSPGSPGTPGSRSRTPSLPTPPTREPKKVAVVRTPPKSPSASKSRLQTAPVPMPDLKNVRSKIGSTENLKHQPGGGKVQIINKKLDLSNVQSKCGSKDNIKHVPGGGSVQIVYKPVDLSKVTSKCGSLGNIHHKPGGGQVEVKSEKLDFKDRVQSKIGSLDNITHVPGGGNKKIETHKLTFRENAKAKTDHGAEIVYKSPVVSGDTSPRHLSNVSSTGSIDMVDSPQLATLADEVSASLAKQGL

aggregated dGAE = target: T9, aggregated dGAE (human, UniProt P10636 614-708, limits assumed); assay: capture ELISA, mAb coated at 1 µg/ml, S1G2 scAb detection
T9 construct: dGAE aggregated in vitro with DTT, 700 rpm, 37 C, 24 h; also called dGAE aggregates; dGAE agg

[12] = target: T1, full length human tau protein 2N4R …; assay: SPR, summary table
Description: The capture antibody was diluted 1/100 in 10 mM Sodium acetate buffer pH 5.0 and passed over the activated chip surface for a period of at least 420 s. Final ligand immobilisation levels over 12,000 RU were deemed to be satisfactory.
The scAb to be tested was added only to flow cell 2 so that flow cell 1 could act as a control to subtract any interaction with the analyte and the chip surface. […] The multi-cycle protocol was as follows-Three start-up cycles composed of an initial capture, to the desired level, of the scAb to be tested was performed followed by a 30 s injection of glycine buffer pH 2.0 after each cycle to regenerate the chip surface. […] The target was added for a 120 s association period and 420 s dissociation period followed by another regeneration, 30 s injection of glycine buffer pH 2.0 in between each cycle.
The single cycle kinetics protocol was similar and utilised the same level of scAb capture. […] In single cycle kinetics the regeneration step was performed only after the final analyte concentration was added. Binding responses were analysed in Biacore X100 evaluation software and data fitted to a 1:1 binding model to obtain kinetic and affinity characterisation.
Target sequence in this assay (P10636 other isoform, or with tags, fused parts or gaps limits assumed): as the sequence (P10636 other isoform, or with tags, fused parts or gaps limits assumed) above

[13] = target: T10, tau parent peptide 319-331 (TSKCGSLGNIHHK); assay: ELISA on biotinylated peptide over streptavidin
T10 peptide: Biotin-TSKCGSLGNIHHK
Description: Briefly, 5 μg/ml streptavidin (Thermo Fisher) was adsorbed to Nunc 96-well MaxiSorp plates and following incubation at 37° C. for 1 h, the plates were washed as normal and blocked with 2% MPBS. N-terminally biotinylated peptides (Prolmmune Ltd) were added to the plates and incubated for 1 h at 37° C. Subsequently, test scAbs at starting concentrations of 100-500 nM was added and double diluted across the plate for each peptide and incubated for 1 h at 37° C. Rest of the ELISA was conducted as described above and the plates were read at absorbance 450 nm. Immunoreactivity of the scAb of interest was quantified as the % of scAb was bound for each peptide at a chosen concentration (FIG. 15-20).

B1: 412G11 (scFv)
scAb: QVRLQESGPSLVKPSQTLSLTCTVSGFSLTSYALGWVRQAPGRAPEWIGNIWRGGRIEYNPALKSRLSITRDTSKSQVSLSLSSVTTEDTAVYYCSRSGGDWGPGLLVTVSSEGKSSGASGESKVDDQAVLTQPSSVSGSLGQRVSITCSGSSSNVGYGNYVGWYQQVPGSAPKLLIYGATSRASGVPDRFSGSRSENTATLTISSLQAEDEADYYCASYDRSESVVFGSGTRLTVLG
EC50 (read off the curve) [1]: ~2 µg/mL
EC50 (read off the curve) [2]: ~2 µg/mL
EC50 (read off the curve) [3]: ~5 µg/mL

B2: NS1G7 scAb (scFv, not shown: small tags and cut ends)
scFv: QVQLQESGPSLVKPSQTLSLTCTVSGFSLTSYGVGWVRQAPGKTLEWISSISSGGTTFYNPALKSRLSITRDTSESQVSLSLSSVTTEDTAVYYCTRDVHIYYNDYGAAYGDRDYWGPGLLVTVSSEGKSSGASGESKVDDQAVVTQPPSVSGSPGQRVSITCSGSSSNIGGGNYVSWYQQLPGSGLRTLIYGTTSRASGVPDRFSGSGSGNTATLTISSLQAEDEADYYCASYDTNSGSVFGSGTRLTVLG
notes: scAb
binding result (dGAE (tau 297-391) [4]): binds
binding result (dGA (tau 297-390)): binds
binding result [5]: binds
binding result (tau fragment 337-368): binds
binding result (tau fragment 275-305): binds

B3: 3aG3 scAb (scFv, not shown: small tags and cut ends)
scFv: QVQLQESGPSLVKPSQTLSLTCTVSGFSLSSNGVGWVRQAPGKVPEWVGDISSSGKAYANPALKSRLSITRDTAKTQVFLSLSSVTTEDTAVYYCVRCRDGGVSYGYDIDYWGPGLLVTVSSEGKSSGASGESKVDDQAVLTQPPSVSGSPGQRVSITCSGSSSNIGGGNYLSWFQQVPGSAPKLLIYGATSRASGVPDRFSGSRSGNTATLTISSLQAEDEADYYCASFDTSSGGIFGAGTRLTVLG
notes: scAb
Kd [6]: 6.1 nM
koff [6]: 0.000387 s⁻¹
kon [6]: 62900 M⁻¹ s⁻¹
EC50 (read off the curve) (tau fragment 1-111): ~0.5 µg/mL
EC50 (read off the curve) (tau fragment 1-49): ~1 µg/mL

B4: S1F4 scAb (scFv, not shown: small tags and cut ends)
scFv: QVQLQESGPSLVKPSQTLSLTCTVSGFSLSSNSVGWVRQAPGKAPEWVAGIDTDGEEGYNPALNSRLSITRDTSKSQVSLSLSSVTSEDTAVYYCVRSYRADGLAYGYVQAIDYWGPGLLLTISSEGKSSGASGESKVDDQAVVTQPSSVSGSLGQRVSITCSGSFIGISSVGWFQQLPGSGLRTVIVASDGRPSGVPDRFSNSKSGNTATLTISSLQAEDEADYFCGSSDRTQYTGVFGSGTRLTVLG
notes: scAb
binding result (tau fragment 369-391): binds
EC50 (read off the curve) (dGAE (tau 297-391) [7]): ~0.3 µg/mL
EC50 (read off the curve) (tau fragment 369-390): ~2 µg/mL
EC50 (read off the curve) [8]: ~0.05 µg/mL

B5: CB2 scAb (scFv, not shown: small tags and cut ends)
scFv: QVQLQESGPSLVKPSQTLSLTCTVSGFSLSTNSVGWVRQAPGKAPEWVAGIDTDGEEGFNPVLKSRLSITRDTSKSQVSLSLSNVTSEDTAVYYCGRSYRTDGLAYGYVQAIDYWGPGLLVTISSEGKSSGASGESKVDDQSVLTQPSSVSGSPGQTVSITCSGSYIGSSGVGWFQQLPGSGLRTIIVASDGRPSGVPDRFSMSKSGNTATLTISSLQAEDEADYFCGSSDRTQYTGLFGSGTRLTVLG
notes: scAb
binding result [5]: binds
binding result (tau fragment 348-441): binds

B6: CB7 mAb (antibody, mouse IgG2a, V domains shown)
VH: QVQLQESGPSLVKPSQTLSLTCTVSGFSLTNYRVGWVRQAPGKALEWVSNIRSGGTTWYNPALKSRLSITADTSKSQVSLSLSSVTTEDTAVYYCARDSSGDLYAYDYWGPGLLVTVSS
VL: QAVLTQPSSVSRSLGQSVSMTCSGSSSNVGYGNYMAWFQQVPGSAPKLLIYGATSRASGVPDRFSGSRSGNTATLTISSLQAEDEADYYCASYDSTSGGVFGSGTRLTVLG
notes: sheep-mouse IgG2a chimeric mAb; also called CB7 antibody
binding result [9]: binds
Kd [10]: 3.7 nM
koff [10]: 0.00945 s⁻¹
kon [10]: 2.57e+06 M⁻¹ s⁻¹
binding result [11]: no binding
binding result (mouse tau): no binding
binding result (aggregated dGAE): no binding (tested: 800 nM)

B7: CE2 scAb (scFv, not shown: small tags and cut ends)
scFv: QVQLQESGPSLVKPSQTLSLTCTVSGFSLTNYPVGWVRQAPGKALEWIGNIENDGSANYASALKSRLSITRDTSKNQVSLSLSSATTEDTAVYYCGREFGGSDGYTYFVDIDYWGPGLLVTVSSEGKSSGASGESKVDDQAVLTQPSSVSKSLGQSVSITCSGSSSNVGYGNYVSWFQQVPGSAPKILIYGATSRASGVPDRFSGSRSGNTATLTITSLQAEDEADYYCASYDGSSSGVFGSGTRLTVLG
notes: scAb
Kd [12]: 5.03 nM
binding result [13]: binds
Kd [6]: 5.03 nM
koff [6]: 0.00108 s⁻¹
kon [6]: 214000 M⁻¹ s⁻¹
EC50 (read off the curve) [8]: ~0.1 µg/mL
